Results as given in patent US20160208233A1 (Harvard, published 2016).

Columns and labels:
Abz-LPETGK(Dnp)-CONH2 = target: T1, Abz-LPETGK(Dnp)-CONH2
T1 chain: LPETGK

Abz-LAETGK(Dnp)-CONH2 = target: T2, Abz-LAETGK(Dnp)-CONH2
T2 chain: LAETGK

Gly-Gly-Gly-COOH = target: T3, Gly-Gly-Gly-COOH
T3 chain: GGG

Abz-LPESGK(Dnp)-CONH2 = target: T4, Abz-LPESGK(Dnp)-CONH2
T4 chain: LPESGK

B1: eSrtA(2A-9) H104A (protein)
chain: QAKPQIPKDKSKVAGYIEIPDADIKEPVYPGPATREQLNRGVCFADENESLDDQNISIAGHTFIDRPNYQFTNLKAAKPGSMVYFKVGNETRIYKMTSIRKVHPNAVEVLDEQEGKDKQLTLVTCDDYNEETGVWESRKIFVATEVK
For B1, the “preference for LPETG over LAETG (kcat/Km)” value (Abz-LPETGK(Dnp)-CONH2) was “resulting in a 60-fold preference for LPETG (SEQ ID NO: 4) over LAETG (SEQ ID NO: 5)”.

B2: eSrtA(2A-9) V182I (protein)
chain: QAKPQIPKDKSKVAGYIEIPDADIKEPVYPGPATREQLNRGVCFHDENESLDDQNISIAGHTFIDRPNYQFTNLKAAKPGSMVYFKVGNETRIYKMTSIRKVHPNAVEVLDEQEGKDKQLTLITCDDYNEETGVWESRKIFVATEVK
In the case of B2, the “preference for LAETG over LPETG (kcat/Km)” value (Abz-LAETGK(Dnp)-CONH2) is reported as “lowers the activity level for LAETG (SEQ ID NO: 5), but maintains an 85-fold preference for LAETG (SEQ ID NO: 5) over LPETG (SEQ ID NO: 4)”.

B3: wild-type S. aureus sortase A (protein)
chain: QAKPQIPKDKSKVAGYIEIPDADIKEPVYPGPATPEQLNRGVSFAEENESLDDQNISIAGHTFIDRPNYQFTNLKAAKKGSMVYFKVGNETRKYKMTSIRDVKPTDVEVLDEQKGKDKQLTLITCDDYNEKTGVWEKRKIFVATEVK
With B3 the Km (Abz-LPETGK(Dnp)-CONH2) was 7600 µM, the Km, LxExG (Abz-LPETGK(Dnp)-CONH2) was 5180 µM and the kcat/Km (Abz-LPETGK(Dnp)-CONH2) was 200 M⁻¹ s⁻¹. It also gave a kcat/Km (Hz/M) (Abz-LPETGK(Dnp)-CONH2) of 236 Hz/M, a Km, GGG (uM); with LPETG peptide (Gly-Gly-Gly-COOH) of 291 µM and a Km,GGG (µM); listed substrate LPETG (Gly-Gly-Gly-COOH) of 211 µM.

B4: eSrtA(2A-4) (protein)
chain: QAKPQIPKDKSKVAGYIEIPDADIKEPVYPGPATREQLNRGVSFHEENESLDDQNISIAGHTFIDRPNYQFTNLKAAKKGSMVYFKVGNETRKYKMTSIRNVRPTAVEILDEQKGKDKQLTLVTCDDYNEETGVWETRKIFVATEVK
B4 was tested, and the Avg KM (Abz-LPETGK(Dnp)-CONH2) was 5180 µM, the Avg kcat/KM (Abz-LPETGK(Dnp)-CONH2) was 9.69 and the Km, LxExG (Abz-LPETGK(Dnp)-CONH2) was 11700 µM. For the same protein, the kcat/Km (Hz/M) (Abz-LPETGK(Dnp)-CONH2) was 8.01 Hz/M, the Avg KM (Abz-LAETGK(Dnp)-CONH2) was 3720 µM and the Avg kcat/KM (Abz-LAETGK(Dnp)-CONH2) was 534. For the same protein, the Km, LxExG (Abz-LAETGK(Dnp)-CONH2) was 3250 µM, the Specificity (relative catalytic efficiency, fold), LAETG over LPETG (Abz-LAETGK(Dnp)-CONH2) was 55.1 fold and the “increase in kcat/Km, LAETG substrate against LPETG substrate” value (Abz-LAETGK(Dnp)-CONH2) was “from ˜40-fold (2Ar4) to ˜125-fold (2Ar5) increase in kcat/Km”. The kcat/Km (Hz/M) (Abz-LAETGK(Dnp)-CONH2) was 585 Hz/M and the specificity (relative cat. Efficiency, fold), LAETG over LPETG (Abz-LAETGK(Dnp)-CONH2) was 73 fold.

B5: eSrtA(4S-3.5) (protein)
chain: QAKPQIPKDKSKVAGYIEIPDADIKEPVYPGPATREQLNRGVSFTEENESLDDQNISITGHTFIDRPNYQFTNLKAAKKGSMVYFKVGNETRKYKMTSIRNVKPTAVEVLDEQKGKDKQLTLVTCDDYNEETGVWETRKIFVATEVK
B5 gave an Avg KM (Abz-LPESGK(Dnp)-CONH2) of 38800 µM, an Avg kcat/KM (Abz-LPESGK(Dnp)-CONH2) of 193 and a Km, LxExG (Abz-LPESGK(Dnp)-CONH2) of 7310 µM. For the same protein, the Specificity, LPESG over LPETG (Abz-LPESGK(Dnp)-CONH2) was 1.45 fold, the kcat/Km (Hz/M) (Abz-LPESGK(Dnp)-CONH2) was 154 Hz/M and the Avg KM (Abz-LPETGK(Dnp)-CONH2) was 39300 µM. For the same protein, the Avg kcat/KM (Abz-LPETGK(Dnp)-CONH2) was 133.

B6: eSrtA(4S-4) (protein)
chain: QAKPQIPKDKSKVAGYIEIPDADIKEPVYPGPATREQLNRGVSFVEENESLDDQNISITGHTSIDRPNYQFTNLKAAKKGSMVYFKVGNETRKYKMTSIRNVKPTAVEVLDEQKGKDKQLTLVTCDDYNEETGVWETRKIFVATEVK
In the case of B6, the Avg KM (Abz-LPESGK(Dnp)-CONH2) is reported as 1560 µM, the Avg kcat/KM (Abz-LPESGK(Dnp)-CONH2) is reported as 487 and the Km, LxExG (Abz-LPESGK(Dnp)-CONH2) is reported as 1410 µM. For the same protein, the Specificity, LPESG over LPETG (Abz-LPESGK(Dnp)-CONH2) was 2.22 fold, the kcat/Km (Hz/M) (Abz-LPESGK(Dnp)-CONH2) was 517 Hz/M and the specificity (relative cat. Efficiency, fold), LPESG over LPETG (Abz-LPESGK(Dnp)-CONH2) was 1.82 fold. The Avg KM (Abz-LPETGK(Dnp)-CONH2) was 491 µM, the Avg kcat/KM (Abz-LPETGK(Dnp)-CONH2) was 219 and the Km, LxExG (Abz-LPETGK(Dnp)-CONH2) was 339 µM. It also gave a kcat/Km (Hz/M) (Abz-LPETGK(Dnp)-CONH2) of 283 Hz/M.

B7: eSrtA(4S-5) (protein)
chain: QAKPQIPKDKSKVAGYIEIPDADIKEPVYPGPATREQLDRGVSFVEENESLDDQNISITGHTAIDRPNYQFTNLRAAKKGSMVYFKVGNETRKYKMTSIRNVKPTAVEVLDEQKGKDKQLTLVTCDDYNEETGVWETRKIFVATEVK
B7 was tested, and the Avg KM (Abz-LPESGK(Dnp)-CONH2) was 76 µM, the Avg kcat/KM (Abz-LPESGK(Dnp)-CONH2) was 5130 and the Km, LxExG (Abz-LPESGK(Dnp)-CONH2) was 76 µM. The Specificity, LPESG over LPETG (Abz-LPESGK(Dnp)-CONH2) was 9.67 fold, the “increase in kcat/Km, LPESG substrate against LPETG substrate” value (Abz-LPESGK(Dnp)-CONH2) was “from ˜2-fold (4Sr5) to ˜5-fold (4Sr6a) increase in kcat/Km” and the “increased affinity for the LPESG substrate as compared to the LPETG substrate” value (Abz-LPESGK(Dnp)-CONH2) was “from ˜2-fold (4Sr6b) to ˜8-fold (4Sr5)”. For the same protein, the kcat/Km (Hz/M) (Abz-LPESGK(Dnp)-CONH2) was 5130 Hz/M, the specificity (relative cat. Efficiency, fold), LPESG over LPETG (Abz-LPESGK(Dnp)-CONH2) was 10 fold and the Avg KM (Abz-LPETGK(Dnp)-CONH2) was 11.7 µM. The Avg kcat/KM (Abz-LPETGK(Dnp)-CONH2) was 530, the Km, LxExG (Abz-LPETGK(Dnp)-CONH2) was 12.2 µM and the kcat/Km (Hz/M) (Abz-LPETGK(Dnp)-CONH2) was 513 Hz/M. For the same protein, the Km,GGG (uM); with LPESG peptide (Gly-Gly-Gly-COOH) was 26700 µM.

B8: eSrtA(4S-6) (protein)
chain: QAKPQIPKDKSKVAGYIEIPDADIKEPVYPGPATREQLDRGVSFVEENESLDDQNISISGHTAIDRPNYQFTNLGAAKKGSMVYFKVGNETRKYKMTSIRNVKPTAVEVLDEQKGKDKQLTLVTCDDYNVETGVWETRKIFVATEVK
In the case of B8, the Avg KM (Abz-LPESGK(Dnp)-CONH2) is reported as 125 µM, the Avg kcat/KM (Abz-LPESGK(Dnp)-CONH2) is reported as 7530 and the Km, LxExG (Abz-LPESGK(Dnp)-CONH2) is reported as 102 µM. For the same protein, the Specificity, LPESG over LPETG (Abz-LPESGK(Dnp)-CONH2) was 8.09 fold, the “increase in kcat/Km, LPESG substrate against LPETG substrate” value (Abz-LPESGK(Dnp)-CONH2) was “from ˜2-fold (4Sr5) to ˜5-fold (4Sr6a) increase in kcat/Km” and the kcat/Km (Hz/M) (Abz-LPESGK(Dnp)-CONH2) was 9390 Hz/M. The specificity (relative cat. Efficiency, fold), LPESG over LPETG (Abz-LPESGK(Dnp)-CONH2) was 11 fold, the Avg KM (Abz-LPETGK(Dnp)-CONH2) was 1040 µM and the Avg kcat/KM (Abz-LPETGK(Dnp)-CONH2) was 930. It also gave a Km, LxExG (Abz-LPETGK(Dnp)-CONH2) of 1290 µM, a kcat/Km (Hz/M) (Abz-LPETGK(Dnp)-CONH2) of 854 Hz/M and an Avg KM (uM) for GGG; with LPESG (4S) peptide (Gly-Gly-Gly-COOH) of 13100 µM. The Avg kcat/KM for GGG; with LPESG (4S) peptide (Gly-Gly-Gly-COOH) was 153 and the Km,GGG (uM); with LPESG peptide (Gly-Gly-Gly-COOH) was 4950 µM.

B9: eSrtA(4S-9) T118A (protein)
chain: QAKPQIPKDKSKVAGYIEIPDADIKEPVYPGPATREQLDRGVCFVEENESLDDQNISIAGHTAIDRPNYQFTNLRAAKKGSMVYLKVGNETRKYKMTSIRNVKPTAVEVLDEQKGKDKQLTLVTCDDYNFETGVWETRKIFVATEVK
In the case of B9, the “lowering of specificity for LPESG over LPETG against eSrtA(4S-9)” value (Abz-LPESGK(Dnp)-CONH2) is reported as “by 75-fold for the T118A mutant”.

B10: eSrtA(4S-9) V104A (protein)
chain: QAKPQIPKDKSKVAGYIEIPDADIKEPVYPGPATREQLDRGVCFAEENESLDDQNISITGHTAIDRPNYQFTNLRAAKKGSMVYLKVGNETRKYKMTSIRNVKPTAVEVLDEQKGKDKQLTLVTCDDYNFETGVWETRKIFVATEVK
With B10 the “lowering of specificity for LPESG over LPETG against eSrtA(4S-9)” value (Abz-LPESGK(Dnp)-CONH2) was “lowering specificity for LPESG (SEQ ID NO: 3) over LPETG (SEQ ID NO: 4) by 14-fold for the V104A mutant”.

B11: eSrtA(4S-9) V182I (protein)
chain: QAKPQIPKDKSKVAGYIEIPDADIKEPVYPGPATREQLDRGVCFVEENESLDDQNISITGHTAIDRPNYQFTNLRAAKKGSMVYLKVGNETRKYKMTSIRNVKPTAVEVLDEQKGKDKQLTLITCDDYNFETGVWETRKIFVATEVK
In the case of B11, the “activity and selectivity on LPESG and LPETG (kcat/Km)” value (Abz-LPESGK(Dnp)-CONH2) is reported as “Reversion of V182 in eSrtA(4S-9) preserved selectivity but decreased overall activity”.

B12: eSrtA(2A-3) (protein)
chain: QAKPQIPKDKSKVAGYIEIPDADIREPVYPGPATREQLNRGVSFAEENESLDDQNISIAGHTSIGRPNYQFTNLRAAKKGSMVYFEVGNETRKYKMTSIRNVRPTAVEILDEQKGKDRQLTLFTCDDYNEETGVWETRKIFVATEVK
In the case of B12, the Avg KM (Abz-LPETGK(Dnp)-CONH2) is reported as 2100 µM, the Avg kcat/KM (Abz-LPETGK(Dnp)-CONH2) is reported as 1270 and the Specificity (relative catalytic efficiency, fold), LPETG over LAETG (Abz-LPETGK(Dnp)-CONH2) is reported as 1.44 fold. It also gave an Avg KM (Abz-LAETGK(Dnp)-CONH2) of 1620 µM and an Avg kcat/KM (Abz-LAETGK(Dnp)-CONH2) of 881.

B13: eSrtA(4S-3) (protein)
chain: QAKPQIPKDKSKVAGYIEIPDADIKEPVYPGPATREQLSRGVSFTEENESLDDQNISITGHTSIGRPNYQFTNLRAAKKGSMVYFKVGNETRKYKMTSIRNVKPTAVEVLDEQEGKDEQLTLVTCDDYNEETGVWETRKIFVATEVK
Work on B13 yielded an Avg KM (Abz-LPESGK(Dnp)-CONH2) of 3330 µM, an Avg kcat/KM (Abz-LPESGK(Dnp)-CONH2) of 763 and a Specificity, LPESG over LPETG (Abz-LPESGK(Dnp)-CONH2) of 245 fold. The Avg KM (Abz-LPETGK(Dnp)-CONH2) was 3390 µM and the Avg kcat/KM (Abz-LPETGK(Dnp)-CONH2) was 3.12.
